Assay results taken from the MegaScale stability set (Tsuboyama et al. 2023).

B1: EHEE_rd4_0726 (parent)
chain: DIEITTNGEEDAKRVIKELQKRNLEYHIEVHGNQWVIKVR

Variants of: B1
Assay: folding stability dG (cDNA display proteolysis); higher = more stable
Conditions: PBS, room temperature

Variant | folding stability dG [kcal/mol]
DIEITTNGEHDAKRVIKELQKRNLEYHIEVHGNQWVIKVR [E10H] | 2.02
DIEITTNGEYDAKRVIKELQKRNLEYHIEVHGNQWVIKVR [E10Y] | 2.07
DIEITTNGEVDAKRVIKELQKRNLEYHIEVHGNQWVIKVR [E10V] | 2.02
DIEITTNGEKDAKRVIKELQKRNLEYHIEVHGNQWVIKVR [E10K] | 2.14
DIEITTNGEMDAKRVIKELQKRNLEYHIEVHGNQWVIKVR [E10M] | 2.05
DIEITTNGEFDAKRVIKELQKRNLEYHIEVHGNQWVIKVR [E10F] | 2.05
DIEITTNGENDAKRVIKELQKRNLEYHIEVHGNQWVIKVR [E10N] | 1.93
DIEIYTNGEEDAKRVIKELQKRNLEYHIEVHGNQWVIKVR [T5Y] | 2.91
DIEIDTNGEEDAKRVIKELQKRNLEYHIEVHGNQWVIKVR [T5D] | 1
DIEIPTNGEEDAKRVIKELQKRNLEYHIEVHGNQWVIKVR [T5P] | 1.59
DIEIKTNGEEDAKRVIKELQKRNLEYHIEVHGNQWVIKVR [T5K] | 2.32
DIEIGTNGEEDAKRVIKELQKRNLEYHIEVHGNQWVIKVR [T5G] | 1.08
DIEICTNGEEDAKRVIKELQKRNLEYHIEVHGNQWVIKVR [T5C] | 2.86
DIEIRTNGEEDAKRVIKELQKRNLEYHIEVHGNQWVIKVR [T5R] | 2.92
DIEIQTNGEEDAKRVIKELQKRNLEYHIEVHGNQWVIKVR [T5Q] | 2
DIEIVTNGEEDAKRVIKELQKRNLEYHIEVHGNQWVIKVR [T5V] | 3.03
DIEIETNGEEDAKRVIKELQKRNLEYHIEVHGNQWVIKVR [T5E] | 1.66
DIEIHTNGEEDAKRVIKELQKRNLEYHIEVHGNQWVIKVR [T5H] | 2.61
DIEIMTNGEEDAKRVIKELQKRNLEYHIEVHGNQWVIKVR [T5M] | 2.39
DIEILTNGEEDAKRVIKELQKRNLEYHIEVHGNQWVIKVR [T5L] | 2.49
DIEIATNGEEDAKRVIKELQKRNLEYHIEVHGNQWVIKVR [T5A] | 1.84

Variant | folding stability dG [kcal/mol]
DIEIITNGEEDAKRVIKELQKRNLEYHIEVHGNQWVIKVR [T5I] | 3.17
DIEISTNGEEDAKRVIKELQKRNLEYHIEVHGNQWVIKVR [T5S] | 1.96
DIEINTNGEEDAKRVIKELQKRNLEYHIEVHGNQWVIKVR [T5N] | 1.75
DIEIFTNGEEDAKRVIKELQKRNLEYHIEVHGNQWVIKVR [T5F] | 2.77
DIEIWTNGEEDAKRVIKELQKRNLEYHIEVHGNQWVIKVR [T5W] | 3.48
DIEITTNGKEDAKRVIKELQKRNLEYHIEVHGNQWVIKVR [E9K] | 2.06
DIEITTNGAEDAKRVIKELQKRNLEYHIEVHGNQWVIKVR [E9A] | 2.26
DIEITTNGREDAKRVIKELQKRNLEYHIEVHGNQWVIKVR [E9R] | 2.19
DIEITTNGYEDAKRVIKELQKRNLEYHIEVHGNQWVIKVR [E9Y] | 2.78
DIEITTNGHEDAKRVIKELQKRNLEYHIEVHGNQWVIKVR [E9H] | 1.92
DIEITTNGQEDAKRVIKELQKRNLEYHIEVHGNQWVIKVR [E9Q] | 1.92
DIEITTNGVEDAKRVIKELQKRNLEYHIEVHGNQWVIKVR [E9V] | 2.15
DIEITTNGPEDAKRVIKELQKRNLEYHIEVHGNQWVIKVR [E9P] | 2.46
DIEITTNGSEDAKRVIKELQKRNLEYHIEVHGNQWVIKVR [E9S] | 1.86
DIEITTNGGEDAKRVIKELQKRNLEYHIEVHGNQWVIKVR [E9G] | 1.76
DIEITTNGDEDAKRVIKELQKRNLEYHIEVHGNQWVIKVR [E9D] | 1.5
DIEITTNGFEDAKRVIKELQKRNLEYHIEVHGNQWVIKVR [E9F] | 2.52
DIEITTNGLEDAKRVIKELQKRNLEYHIEVHGNQWVIKVR [E9L] | 2.36
DIEITTNGWEDAKRVIKELQKRNLEYHIEVHGNQWVIKVR [E9W] | 3.31
DIEITTNGNEDAKRVIKELQKRNLEYHIEVHGNQWVIKVR [E9N] | 1.36
DIEITTNGIEDAKRVIKELQKRNLEYHIEVHGNQWVIKVR [E9I] | 2.48

Variant | folding stability dG [kcal/mol]
DIEITTNGTEDAKRVIKELQKRNLEYHIEVHGNQWVIKVR [E9T] | 1.52
DIEITTNGMEDAKRVIKELQKRNLEYHIEVHGNQWVIKVR [E9M] | 2.12
DIEITTMGEEDAKRVIKELQKRNLEYHIEVHGNQWVIKVR [N7M] | 2.54
DIEITTWGEEDAKRVIKELQKRNLEYHIEVHGNQWVIKVR [N7W] | 3.1
DIEITTQGEEDAKRVIKELQKRNLEYHIEVHGNQWVIKVR [N7Q] | 2.4
DIEITTAGEEDAKRVIKELQKRNLEYHIEVHGNQWVIKVR [N7A] | 2.19
DIEITTKGEEDAKRVIKELQKRNLEYHIEVHGNQWVIKVR [N7K] | 2.1
DIEITTFGEEDAKRVIKELQKRNLEYHIEVHGNQWVIKVR [N7F] | 2.75
DIEITTHGEEDAKRVIKELQKRNLEYHIEVHGNQWVIKVR [N7H] | 2.42
DIEITTCGEEDAKRVIKELQKRNLEYHIEVHGNQWVIKVR [N7C] | 2.87
DIEITTGGEEDAKRVIKELQKRNLEYHIEVHGNQWVIKVR [N7G] | 1.78
DIEITTYGEEDAKRVIKELQKRNLEYHIEVHGNQWVIKVR [N7Y] | 3.03
DIEITTTGEEDAKRVIKELQKRNLEYHIEVHGNQWVIKVR [N7T] | 2.34
DIEITTDGEEDAKRVIKELQKRNLEYHIEVHGNQWVIKVR [N7D] | 2.4
DIEITTLGEEDAKRVIKELQKRNLEYHIEVHGNQWVIKVR [N7L] | 2.47
DIEITTEGEEDAKRVIKELQKRNLEYHIEVHGNQWVIKVR [N7E] | 2.41
DIEITTPGEEDAKRVIKELQKRNLEYHIEVHGNQWVIKVR [N7P] | 1.36
DIEITTVGEEDAKRVIKELQKRNLEYHIEVHGNQWVIKVR [N7V] | 2.29
DIEITTSGEEDAKRVIKELQKRNLEYHIEVHGNQWVIKVR [N7S] | 2.26
DIEITTIGEEDAKRVIKELQKRNLEYHIEVHGNQWVIKVR [N7I] | 2.43
DIEITTRGEEDAKRVIKELQKRNLEYHIEVHGNQWVIKVR [N7R] | 2.25
